Assay results: US11813311B2, “Treatment and prevention of metabolic diseases” (Singapore Health Services PTE LTD., priority 2019, dated 2023)

What was measured:
[1] = system: rheumatoid synovial cells; settings: cited from earlier work
[2] = system: IL-11 mediated signalling; settings: cited from earlier work
[3] = system: primary human hepatocytes; assay: Stimulation of primary human hepatocytes with IL11, hyperIL11, hyperIL6; type: cell-based
Procedure: Human hepatocytes (5200, ScienCell) were grown and maintained in hepatocyte media (5201, ScienCell) supplemented with 2% fetal bovine serum (FBS) and 1% Penicillin-streptomycin.
Primary human hepatocytes (5200, ScienCell) were maintained in hepatocyte medium ([…], ScienCell) supplemented with 2% fetal bovine serum, 1% Penicillin-streptomycin at 37° C. and 5% CO2. Hepatocytes (P2-P3) were serum-starved overnight unless otherwise specified in the methods prior to 24 hours stimulation with different doses of various recombinant proteins as described.
For surface IL11RA, IL6R, and gp130 analysis, primary human hepatocytes and THP-1 cells were stained with IL11RA, IL6R, or gp130 antibody and the corresponding Alexa Fluor 488 secondary antibody. Cell death analysis was performed by staining primary human hepatocytes with Dead Cell Apoptosis Kit with Annexin V FITC and PI (V13242, Thermo Fisher). PI+ve cells were then quantified with the flow cytometer (Fortessa, BD Biosciences) and analyzed with FlowJo version X software (TreeStar).
Alanine Aminotransferase (ALT) activity in the cell culture supernatant and mouse serum was measured using ALT Activity Assay Kit (ab105134, Abcam). Liver Glutathione (GSH) levels were measured using Glutathione Colorimetric Detection Kit (EIAGSHC, Thermo Fisher). Total hydroxyproline content in mouse livers was measured using Quickzyme Total Collagen assay kit (QZBtotco15, Quickzyme Biosciences). The levels of serum and liver triglycerides were measured using Triglyceride Assay Kit (ab65336, Abcam). Mouse serum levels of Aspartate Aminotransferase (AST) and cholesterol were measured using AST Assay Kit (ab105135, Abcam) and Cholesterol Assay Kit (ab65390; Abcam), respectively. All colorimetric assays were performed according to the manufacturer's protocol.
(§1) Western blots were carried out on total protein extracts from hepatocytes and liver tissues. Hepatocyte and liver tissue lysates were homogenized in RIPA Lysis and Extraction Buffer (89901, Thermo Scientific) containing protease and phosphatase inhibitors (Roche). Protein lysates were separated by SDS-PAGE and transferred to PVDF membranes. Protein bands were visualized using the ECL detection system (Pierce) with the appropriate secondary antibodies: anti-rabbit HRP or anti-mouse HRP.

[4] = system: primary human hepatocytes; assay: Palmitate loading (lipotoxicity) of primary human hepatocytes; type: cell-based
Procedure: Palmitate:BSA conjugated solution in the ratio of 6:1 was prepared as described earlier (Alsabeeh et al., 2018). Palmitate (0.5 mM) conjugated in fatty acids free BSA was used to treated cells as described in figure legends; 0.5% BSA solution was used as control. […]
Primary human hepatocytes were seeded on 8-well chamber slides (1×10^4 cells/well). For this experiment, cells were not serum-starved prior to palmitate treatment. 24 hours following palmitate stimulation, cells were washed, incubated with 25 μM of DCFDA solution (ab113851, Abcam) for 45 minutes at 37° C. in the dark, and rinsed with dilution buffer according to the manufacturer's protocol. Live cells with positive DCF staining were imaged with filter set appropriate for fluorescein (FITC) using a fluorescence microscope (Leica). […]
as §1

[5] = system: WDF-fed mice; assay: Hepatocyte-specific sgp130 expression in WDF-fed mice; type: in vivo, mouse
Procedure: (§2) Three weeks prior to starting either the WDF and HFMCD diet, mice were injected with an AAV8 virus encoding either albumin promoter-driven sgp130 (AAV8-Alb-sgp130), which contains the whole extracellular domain of mouse gp130 protein (amino acid 1 to 617), or albumin promoter alone (AAV8-Alb-Null) (FIGS. 35A, 41A, and 42A). AAV8-Alb-sgp130 administration induced high levels of sgp130 in the liver, which was also detectable in the peripheral circulation, suitable for both local and systemic inhibition of putative IL6 or IL11 trans-signaling (FIGS. 35B, 41B, 42B-42C).
6-8 weeks old C57BL/6N, Il11ra1−/− mice, and Il11ra1loxP/loxP and their respective control were fed western diet (D12079B, Research Diets) supplemented with 15% weight/volume fructose in drinking water (WDF) for 16 weeks. Control mice received NC and tap water.
(§3) 6-8-week old male C57BL/6N mice (InVivos) were injected with 4×10^11 gc AAV8-Alb-sgp130 virus to induce hepatocyte specific expression of soluble gp130; control mice were injected with 4×10^11 gc AAV8-Alb-Null virus. 3 weeks following virus administration, mice were fed with HFMCD, WDF, or NC for durations that are described.

[6] = system: HFMCD-fed mice; assay: Hepatocyte-specific sgp130 expression in HFMCD-fed mice; type: in vivo, mouse
Procedure: as §2
6-8 weeks old C57BL/6N, Il11ra1−/− mice, and Il11ra1loxP/loxP and their respective control were fed with methionine- and choline-deficient diet supplemented with 60 kcal % fat (HFMCD, A06071301B16, Research Diets) for 4 weeks. Control mice received normal chow (NC, Specialty Feeds).
as §3

COc1ccc2c(c1)c(CC(=O)O)c(C)n2C(=O)c1ccc(Cl)cc1 [indomethacin, reference compound]
expression of IL-11 [1]: reduction in the expression of IL-11

B1: sIL-11R: soluble murine IL-11 receptor alpha chain (Curtis et al.) (protein, UniProt Q64385 24-372, looked up)
extracellular domain: SPCPQAWGPPGVQYGQPGRPVMLCCPGVSAGTPVSWFRDGDSRLLQGPDSGLGHRLVLAQVDSPDEGTYVCQTLDGVSGGMVTLKLGFPPARPEVSCQAVDYENFSCTWSPGQVSGLPTRYLTSYRKKTLPGAESQRESPSTGPWPCPQDPLEASRCVVHGAEFWSEYRINVTEVNPLGASTCLLDVRLQSILRPDPPQGLRVESVPGYPRRLHASWTYPASWRRQPHFLLKFRLQYRPAQHPAWSTVEPIGLEEVITDAVAGLPHAVRVSARDFLDAGTWSAWSPEAWGTPSTGPLQDEIPDWSQGHGQQLEAVVAQEDSPAPARPSLQPDPRPLDHRDPLEQVAVLA
modifications: extracellular domain
antagonism of IL-11 mediated signalling [2]: capable of antagonizing the activity of IL-11

B2: sgp130: Soluble gp130, inhibitor of trans-signaling; human sgp130 Fc in vitro, mouse sgp130 expressed from AAV8-Alb-sgp130 in vivo (protein)
chain: ELLDPCGYISPESPVVQLHSNFTAVCVLKEKCMDYFHVNANYIVWKTNHFTIPKEQYTIINRTASSVTFTDIASLNIQLTCNILTFGQLEQNVYGITIISGLPPEKPKNLSCIVNEGKKMRCEWDGGRETHLETNFTLKSEWATHKFADCKAKRDTPTSCTVDYSTVYFVNIEVWVEAENALGKVTSDHINFDPVYKVKPNPPHNLSVINSEELSSILKLTWTNPSIKSVIILKYNIQYRTKDASTWSQIPPEDTASTRSSFTVQDLKPFTEYVFRIRCMKEDGKGYWSDWSEEASGITYEDRPSKAPSFWYKIDPSHTQGYRTVQLVWKTLPPFEANGKILDYEVTLTRWKSHLQNYTVNATKLTVNLTNDRYLATLTVRNLVGKSDAAVLTIPACDFQATHPVMDLKAFPKDNMLWVEWTTPRESVKKYILEWCVLSDKAPCITDWQQEDGTVHRTYLRGNLAESKCYLITVTPVYADGPGSPESIKAYLKQAPPSKGPTVRTKKVGKNEAVLEWDQLPVDVQNGFIRNYTIFYRTIIGNETAVNVDSSHTEYTLSSLTSDTLYMVRMAAYTDEGGKDGPEFTFTTPKFAQGEIE
modifications: left off: a dimerising Fc or GST
notes: human sgp130 Fc in vitro, mouse sgp130 expressed from AAV8-Alb-sgp130 in vivo
IL11-induced hepatocyte death and signaling ([3]; IL11 20 ng/ml, sgp130 or sIL11RA 1 μg/ml): unaffected
ALT release from IL11-stimulated hepatocytes ([3]; increasing doses of sgp130 or sIL11RA): no effect
activation of signaling downstream of hyperIL6 (p-STAT3) ([3]; sgp130 added): blocked
activation of signaling downstream of hyperIL11 (p-ERK/p-JNK) ([3]; sgp130 added): blocked
hepatotoxic effects of hyperIL11 ([3]; sgp130 added): inhibited
IL11 dose-dependent hepatocyte cell death on addition of decoy ([3]; sgp130 or sIL11RA 1 μg/ml): unaffected
palmitate-induced signaling events ([4]; Western blot): no effect
secretion of cytokines (IL11, IL6, CCL2, CCL5) ([4]; X209 2 μg/ml or sgp130 1 μg/ml): no effect
ALT, AST, collagen, fasting blood glucose, serum triglycerides, serum cholesterol, GSH ([5]; 16 weeks of WDF): none of these parameters were affected
expression of pro-inflammatory and fibrosis genes ([5]; 16 weeks of WDF): unaffected
obesity, liver mass and steatosis phenotypes ([5]; 16 weeks of WDF): unaffected
diet-induced signaling events ([5]; WDF): no effect
diet-induced signaling events ([6]; HFMCD): no effect
HFMCD-induced liver fibrosis ([6]; HFMCD 4 weeks): unchanged
expression of inflammation and fibrosis genes ([6]; HFMCD 4 weeks): unaffected
hepatocyte damage markers (ALT and AST) and GSH ([6]; HFMCD 4 weeks): irrespective of sgp130 expression
steatosis ([6]; HFMCD 4 weeks): unaltered

B3: W147A: IL-11 antagonist mutein, amino acid 147 mutated from tryptophan to alanine (protein, UniProt P20809 22-199, looked up, variant W147A)
Interleukin-11: PGPPPGPPRVSPDPRAELDSTVLLTRSLLADTRQLAAQLRDKFPADGDHNLDSLPTLAMSAGALGALQLPGVLTRLRADLLSYLRHVQWLRRAGGSSLKTLEPELGTLQARLDRLLRRLQLLMSRLALPQPPPDPPAPPLAPPSSAAGGIRAAHAILGGLHLTLDWAVRGLLLLKTRL
antagonism of IL-11 mediated signalling [2]: efficient blockade of IL-11 signalling

B4: interferon-gamma: interferon-gamma (IFNγ) (protein, UniProt P01579 24-161, looked up)
Interferon gamma: QDPYVKEAENLKKYFNAGHSDVADNGTLFLGILKNWKEESDRKIMQSQIVSFYFKLFKNFKDDQSIQKSVETIKEDMNVKFFNSNKKKRDDFEKLTNYSVTDLNVQRKAIHELIQVMAELSPAAKTGKRKRSQMLFRG
expression of IL-11 [1]: reduction in the expression of IL-11
